Experimental data reported in US20110236679A1 (FUJIFILM, published 2011).

How the values were obtained:
lysozyme [1] = target: T1, lysozyme (hen (hen egg lysozyme, as named for the …, UniProt P00698 19-147)); assay: SPR (BIACORE 3000), 100 nM lysozyme injected for 10 min; lysozyme bound divided by fragments immobilized; VH and VL fragments immobilized one after the other without antigen
T1 construct: also called hen egg lysozyme; HEL
Description: (§1) Time-dependent change in lysozyme binding over a period of 10 minutes from starting the addition of lysozyme was measured using BIACORE 3000. The binding ratio of lysozyme was obtained by dividing the binding amount of lysozyme during the 10-minutes-period by the immobilization amount of the antibody fragments.
(§2) The binding amount of lysozyme was calculated and expressed as a relative value, assuming that the binding amount of lysozyme in Comparative Example 2 is 1.

lysozyme [2] = target: T1, lysozyme; assay: SPR (BIACORE 3000), 100 nM lysozyme injected for 10 min; lysozyme bound divided by fragments immobilized; fragments immobilized as 10:10:3 complex with lysozyme, antigen washed off
Description: as §1, §2

[3] = target: T2, MBP-VH(BGP) and MBP-VL(BGP), separate MBP-fused VH-region and VL-region polypeptides of the anti-osteocalcin …; assay: SPR (BIACORE 3000), BGP heptapeptide over immobilized MBP-VH(BGP) and MBP-VL(BGP)
T2 construct: Two separate chains, not linked, on SENSORCHIP CM5; Substrate I was made from the 1:1:1 complex with the BGP heptapeptide, which was then washed off; In J the chains were immobilized one after the other without antigen; Both entries as printed start with the MBP leader; also called immobilization substrates I, J

T1 sequence (P00698 19-147 limits assumed): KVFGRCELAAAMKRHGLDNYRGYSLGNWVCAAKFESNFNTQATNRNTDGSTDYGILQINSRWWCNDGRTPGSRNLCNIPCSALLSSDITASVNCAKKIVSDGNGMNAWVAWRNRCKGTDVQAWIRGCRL

B1: VH(HEL)-His6 and VL(HEL)-His10, separate VH-region and VL-region polypeptides of the anti-hen egg lysozyme antibody LxE16, immobilized together on a sensor chip (other)
VH: EVQLQESGPSLVKPSQTLSLTCSVTGDSITRGYWSWIRKFPGNKLEYMGYISYSGSTFYNPSLKSRISITRDTFKNQLYLQLNSVTTEDTATYYCAEYDGTYWGQGTTVTVHHHHHHGAAEQKLISEEDLNGAA
VL: VEFAAQPAMASTDILMTQTPATLSVTPGDSVSLSCRASQSIGNNLHWFQQKSHESPRLLIKYASQSISGIPSRFSGSGSGTDFTLSINTVETEDFGMYFCQQSNSWPYTFGGGTKLEIKRAAAEHHHHHHHHHH
notes: Two separate chains, not linked; Substrate G was made from the 10:10:3 complex with lysozyme, which was then washed off; In H the chains were immobilized one after the other without antigen; also called immobilization substrates G, H
In the case of B1, the Lysozyme binding ratio (lysozyme [1]) is reported as 1 relative value (text: Comparative Example 2 = 1; in the table Comparative Example 4 stands at 1) and the Lysozyme binding ratio (lysozyme [2]) is reported as 7.6 relative value (text: Comparative Example 2 = 1; in the table Comparative Example 4 stands at 1).

B2: C-terminal heptapeptide fragment of BGP (RRFYGPY) (peptide)
peptide: RRFYGPY
notes: also called BGP heptapeptide; osteocalcin C-terminal heptapeptide
B2: binds [3].
